Assay results taken from PMC7179994 (2019).

Biological target: VLDL receptor (Homo sapiens, UniProt P98155)
Assay: SPR

- Kd: 9.6 nM
B1: NDSK-II fragment of fibrin NDSK-II (central region) (protein)
chain 1: ADSGEGDFLAEGGGVRGPRVVERHQSACKDSDWPFCSDEDWNYKCPSGCRMKGLIDEVNQDFTNRINKLKNSLFEYQKNNKDSHSLTTNIMEILRGDFSSANNRDNTYNRVSEDLRSRIEVLKRKVIEKVQHIQLLQKNVRAQLVDMKRLEVDIDIKIRSCRGSCSRALAREVDLKDYEDQQKQLEQVIAKDLLPSRDRQHLPLIKMKPVPDLVPGNFKSQLQKVPPEWKALTDMPQMRMELERPGGNEITRGGSTSYGTGSETESPRNPSSAGSWNSGSSGPGSTGNRNPGSSGTGGTATWKPGSSGPGSTGSWNSGSSGTGSTGNQNPGSPRPGSTGTWNPGSSERGSAGHWTSESSVSGSTGQWHSESGSFRPDSPGSGNARPNNPDWGTFEEVSGNVSPGTRREYHTEKLVTSKGDKELRTGKEKVTSGSTTTTRRSCSKTVTKTVIGPDGHKEVTKEVVTSEDGSDCPEAMDLGTLSGIGTLDGFRHRHPDEAAFFDTASTGKTFPGFFSPMLGEFVSETESRGSESGIFTNTKESSSHHPGIAEFPSRGKSSSYSKQFTSSTSYNRGDSTFESKSYKMADEAGSEADHEGTHSTKRGHAKSRPVRDCDDVLQTHPSGTQSGIFNIKLPGSSKIFSVYCDQETSLGGWLLIQQRMDGSLNFNRTWQDYKRGFGSLNDEGEGEFWLGNDYLHLLTQRGSVLRVELEDWAGNEAYAEYHFRVGSEAEGYALQVSSYEGTAGDALIEGSVEEGAEYTSHNNMQFSTFDRDADQWEENCAEVYGGGWWYNNCQAANLNGIYYPGGSYDPRNNSPYEIENGVVWVSFRGADYSLRAVRMKIRPLVTQ
chain 2: QGVNDNEEGFFSARGHRPLDKKREEAPSLRPAPPPISGGGYRARPAKAAATQKKVERKAPDAGGCLHADPDLGVLCPTGCQLQEALLQQERPIRNSVDELNNNVEAVSQTSSSSFQYMYLLKDLWQKRQKQVKDNENVVNEYSSELEKHQLYIDETVNSNIPTNLRVLRSILENLRSKIQKLESDVSAQMEYCRTPCTVSCNIPVVSGKECEEIIRKGGETSEMYLIQPDSSVKPYRVYCDMNTENGGWTVIQNRQDGSVDFGRKWDPYKQGFGNVATNTDGKNYCGLPGEYWLGNDKISQLTRMGPTELLIEMEDWKGDKVKAHYGGFTVQNEANKYQISVNKYRGTAGNALMDGASQLMGENRTMTIHNGMFFSTYDRDNDGWLTSDPRKQCSKEDGGGWWYNRCHAANPNGRYYWGGQYTWDMAKHGTDDGVVWMNWKGSWYSMRKMSMKIRPFFPQQ
chain 3: YVATRDNCCILDERFGSYCPTTCGIADFLSTYQTKVDKDLQSLEDILHQVENKTSEVKQLIKAIQLTYNPDESSKPNMIDAATLKSRKMLEEIMKYEASILTHDSSIRYLQEIYNSNNQKIVNLKEKVAQLEAQCQEPCKDTVQIHDITGKDCQDIANKGAKQSGLYFIKPLKANQQFLVYCEIDGSGNGWTVFQKRLDGSVDFKKNWIQYKEGFGHLSPTGTTEFWLGNEKIHLISTQSAIPYALRVELEDWNGRTSTADYAMFKVGPEADKYRLTYAYFAGGDAGDAFDGFDFGDDPSDKFFTSHNGMQFSTWDNDNDKFEGNCAEQDGSGWWMNKCHAGHLNGVYYQGGTYSKASTPNGYDNGIIWATWKTRWYSMKKTTMKIIPFNRLTIGEGQQHHLGGAKQVRPEHPAETEYDSLYPEDDL
